# From the DeepSol protein solubility set
# Experiment: soluble on expression in E. coli; label from the status in PepcDB or PDB records
row,Sequence,soluble on expression in E. coli
1,MGIIISLVAPTVSSTISSRLMIGPENNEKDAKNSDRTKYDNLAMLGRSPEQKEHVNPFEKAPVARPTRNTVDSQMMLGPPKKANDQSASDCSIYDNLVVPMSELGPTPGNKPSPNPIEGAPMIRPPQDTVSRAPDNSIYDTLQMTPEVDWSKKMTMKSMKKTGK,not soluble
2,MGILAERLDSLSIETSSPDGQITGVFRPTSALSVHFRDGGYRGYTERGLERQLAALVASAWARYWRARQAAVAEATGEPAVPHQPWDTAGRRYRAERDRTRCEGMSAGHRVHVSHTGLRDWNVVVRDGTLSTLDEFGFAAELESGFTAAMRDHRHKLMMLRDKHLPR,not soluble
3,MGIMELARIDLSRDDLDKRIGGGIPHGSLIIIEGEESTGKSVLCQRLAYGFLQNRYSVTYVSTQLTTLEFIKQMNSLNYSINKKLLSGALLYIPVYPLIADNKKKDGFLKKVMETRAFYEKDVIIFDSISALIANDASEVNVDDLMAFFKRITALKKIIICTVNPKELPESVLTIIRTSATMLIRTELFTFGGDLKNLAKILKYNMAPGSYQKNIVFRVEPKIGIAVEIASVALEHHHHHH,soluble
4,MGIPKEGEFVTIQSYKHDGHLHRTWRDTMVLKTSEYSLIGVNDHTLVTESDGRRWVTREPAIVYFHKKYWFNIIAMIREKGVSYYCNLASPYVLDDEALKYIDYDLDIKVFPDGEKRLLDVDEYEFHSKLMDYPEDIDFILKENVKTLVDWINNEKGPFSPEYVDIWYQRYQQLSKK,not soluble
5,MGIRVKRRQHQHLLESLVHSTAKQQGDFTKTAELATELLCQNLAVSLVSIWIFSADQGTQSLVAQFGSMALQDTYRPSLLHTVPRYLNELKNYRHIDAGNTLIDPRLTELVDSYFIPRQILSSLDVGIRINGHLEGVLCIERAQVTHHWHDSEIHLACQMADQLALTLATKHAYDKEERLSLFRCAIEQSRQMSMLEHHHHHH,soluble
6,MGITTNLISEVSKFYYALKYHAKFMSLGELGCYASHYSLWEKCIELNEAICILEDDITLKEDFKEGLDFLEKHIQELGYIRLMHLLYDASVKSEPLSHKNHEIQERVGIIKAYSEGVGTQGYVITPKIAKVFLKCSRKWVVPVDTIMDATFIHGVKNLVLQPFVIADDEQISTIARKEEPYSPKIALMRELHFKYLKYWQFVLEHHHHHH,soluble
7,MGKARGVNNGVNESSLGYLFGSGQPSSAAAATMGTTTTTTTTTTTDGTGGRPITTTTTTVTDNKKTSAGVRGSPNNYFRSEGQNCGNFLTDRPSTKVHAAPGGGSSLDYLFGGPSPAGSGNK,not soluble
8,MGKNKQNKFFQMKASANGKTADVFIYGEITKYAWEEYGEVSSITFKNELDELGDDIKTINLYINSPGGSVFETMAIIAMLQRHHAKIISYIDGIGASCASVLPMISDKIIMYANSMMMIHNAWTYASGNADQLRKAADDIERINQSMVQHYLTRAGDKLDEDTLKQLLDAETWLSAEEAMGYGLCDEIIPANNATACLDEKWMKEYKNIPQQLVNAQANISSNEMLERQKIAEEAKANADYIKTILGRIHS,not soluble
9,MGKPVVAIVGRPNVGKSTIFNRIAGERISIVEDTPGVTRDRIYSSAEWLNYDFNLIDTGGIDIGDEPFLAQIRQQAEIAMDEADVIIFMVNGREGVTAADEEVAKILYRTKKPVVLAVNKLDNTEMRANIYDFYSLGFGEPYPISGTHGLGLGDLLDAVAEHFKNIPETKYNEEVIQFCLIGRPNVGKSSLVNAMLGEERVIVSNVAGTTRDAVDTSFTYNQQEFVIVDTAGMRKKGKVYETTEKYSVLRALKAIDRSEVVAVVLDGEEGIIEQDKRIAGYAHEAGKAVVIVVNKWDAVDKDESTMKEFEENIRDHFQFLDYAPILFMSALTKKRIHTLMPAIIKASENHSLRVQTNVLNDVIMDAVAMNPTPTHNGSRLKIYYATQVSVKPPSFVVFVNDPELMHFSYERFLENRIRDAFGFEGTPIKIFARARK,soluble
10,MGKRSGASYRSRRPKLACADWDKRMMQTQPFRLPRFTPFGVIEKGVELATGLSQLERYYQQRPTTRDGFEFMRYTLEALNVHYQVDRGRVEQIPAQGPVVIVANHPLGAIEGVILADLVGQVRKDVKVLANQLLKRLPEIEPLFIGVDVFNGAQASKTNARGIREAHRHLAEGGVLIVFPAGEVSTPQKETGQLSDIDWSQSVAKFIQRSQARCVPIYIHGRNSAWFYRAGKIHPLLRTAMLGRELLNKSASTISLCIGQPIPYAELKEFTKDEDVVNYLRLNTYLMSPHGQVESAKVSFTIPVIDPVPKAALIAELAQLDKQAKLLEQGEFTVYCVPSTHIPLMMQEIGRVREISFRAVGEGSGQACDVDAYDHHYWQLFVWNREQSELVGAYRMGLVDKIVAERGLQGLYSRSLFHYDHAFLATLENAIELGRSVVAEQYQRNLNSLLLLWKGIARFVELNPHYTHLFGPVSISNDYSPAARQLMAATLSIHHYDQHKAALVSPSTPLRAGTEVFWQKSLLSALASVSLLSKVVARMEQGNGLPVLLRQYLGMNGKLVCLNVDPAFNDALDGLIVVNLKQVPLKTLAKYMGKEAAQHYLCSVT,not soluble
11,MGKSLDEQFEAAVWIINALPKNGPIKTSINDQLQMYSLYKQATSGKCDTIQPYFFQIEQRMKWNAWNQLGNMDEAEAKAQYVEKMLKLCNQAEAEHNLMEFLSDPTIADLLPKQNQLREHFATLGRTTVKGFEGETVEINGVSISF,not soluble
12,MGLAASEALQGSEQEINSAFSNQITPVISGDYIVWQDERDGNWDIYMYDMSAGRTETSLFNGPKDEIEPAISGSRVVLADNRRGNYDIYMYDISTKKEVQVTSDKSEQKEPAISEDIIVWTDRRNQNTDIYMYDLTTKEETRITDDKADQSQPAVWGNIIVWKDTRNGNEDIYMYDISAGKESPVVMDSAAQTNPVIEGDYIVWEDRRAGNLDIYMYEISTGKEKPVCTDPSPQKTPAISDGRIVWADGRIKGTNIFIYDIATGQEKTVSTASEYESNPSIDGNRIVWQDKRKGAMDIFMFTEDASETESTAGEKTEAETGSKAPLGIYPVSAGVIAAYLMINSGKKGKRKTLEHHHHHH,not soluble
13,MGLCLAKRNHDADDDEPHIELAGGNVHLITTKERWDQKLSEASRDGKIVLANFSARWCGPCKQIAPYYIELSENYPSLMFLVIDVDELSDFSASWEIKATPTFFFLRDGQQVDKLVGANKPELHKKITAILDSLPPSDK,soluble
14,MGLHVPADQHDLDFTRLGPWFSVMVNGEGQRYKVSGQVTHVKPPQSVGFTWGWHDDDDRRGAESHVMFIVEPCAKGARLILDHRELGDDEMSLRHEEGWTSSLRKLAAELEHHHHHH,not soluble
15,MGLIVDDDNDGEVLIPPPNFSMVEDEIYRSGFPELENFGFLSTLNLRSIIYLCPEPYPEDNLKSLASNNIKLFQFGIEGKTDPPTPMPKDTVLSALRVLVDVRNHPILIHCKRGKHRTGCLVGCLRKVQNWCLSSVLEEYQKCAGLKWRQRDLRFIEDFDVLRLKQCLYSIIYQYNGYGLKRRKLLYQEENVVQEQQKPQATKG,soluble
16,MGLSCTDDWRVIDLPGSFITVTNLNQFTLNGDGFAARMEMTLVAPDHGGDSDLIAMGELIEQAISGVRSLGGAIESIELNQQVTPPHGGKAPASTMTFTLFYDMENEE,not soluble
17,MGLTVEAADEKGLTLRLPYSQAIIGNPESGVVHGGAITTLMDTTCGISTVCVLPDFEICPTLDLRIDYMHPAEPHKDVYGFAECYRVTPNVIFTRGFAYQDDPGQPIAHVVGAFMRMGLEHHHHHH,not soluble
18,MGMLVEGVWKDVWYDTKETKGHFKRSASQFRNWVTVDGAVGPSGEGGFEAEKDRYHLYVSFACPWAHRTLIFRKLKKLEDLISVSVVDPLMLENGWEFKPEGERTPGATQDHLFGSSTLWQVYTKADPTYSGRVTVPVLWDKKRGTIVSNESAEIIRMFNVAFNDLTGSDADYYPKALRAEIDALNDVIYDTVNNGVYKAGFATTQDAYQQNAVKVFETLDMLEDRLKDRRFLFGSEQTEADWRLFTTLVRFDPVYVGHFKCNIRRIHDYPHLTGYLRDLYQTPGVPDTVDMRHIKEHYYRSHRTINPTGIVPIGPELDLTMAHGREALS,soluble
19,MGMPEEALKIYQELLEIEKELGNEREIALTLANIAVVKDELGEADEAIKLMSEAKDIFEKINDTKNYHIALIDLAHFYYELGEYEKAMQIIEEVLRNPLDDEIEVHGRLVESEIHSALENYKKAALSLRNALLRSGDDEYLFETAFEAVLEFIEELYNEEKLEHHHHHH,not soluble
20,MGMTIVEKILAKASGKKEVSPGDIVMANIDVAMVHDITGPLTVNTLKEYGIEKVWNPEKIVILFDHQVPADSIKAAENHILMRKFVKEQGIKYFYDIREGVCHQVLPEKGHVAPGEVVVGADSHTCTHGAFGAFATGIGSTDMAHVFATGKLWFKVPET,not soluble
21,MGNTLGLAPMGTLPRRSPRREEPLPNPGSFDELHRLCKDVFPAQMEGVKLVVNKVLSSHFQVAHTIHMSALGLPGYHLHAAYAGDWQLSPTEVFPTVVGDMDSSGSLNAQVLLLLAERLRAKAVFQTQQAKFLTWQFDGEYRGDDYTATLTLGNPDLIGESVIMVAHFLQSLTHRLVLGGELVYHRRPGEEGAILTLAGKYSAVHWVATLNVGSGGAHASYYHRANEQVQVGVEFEANTRLQDTTFSFGYHLTLPQANMVFRGLVDSNWCVGAVLEKKMPPLPVTLALGAFLNHWRNRFHCGFSITVG,soluble
22,MGNYMTYIVGLTGGIGSGKTTIANLFTDLGVPLVDADVVAREVVAKDSPLLSKIVEHFGAQILTEQGELNRAALRERVFNHDEDKLWLNNLLHPAIRERMKQKLAEQTAPYTLFVVPLLIENKLTALCDRILVVDVSPQTQLARSAQRDNNNFEQIQRIMNSQVSQQERLKWADDVINNDAELAQNLPHLQQKVLELHQFYLQQAENKNALEHHHHHH,soluble
23,MGPHFTLLLAALANCLCPGRPCIKCDQFVTDALKTFENTYLNDHLPHDIHKNVMRMVNHEVSSFGVVTSAEDSYLGAVDENTLEQATWSFLKDLKRITDSDLKGELFIKELLWMLRHQKDIFNNLARQFQKEVLCPNKCGVMSQTLIWCLKCEKQLHICRK,not soluble
24,MGPLLVWHRGDLRLHDHPALLEALARGPVVGLVVLDPNNLKTTPRRRAWFLENVRALREAYRARGGALWVLEGLPWEKVPEAARRLKAKAVYALTSHTPYGRYRDGRVREALPVPLHLLPAPHLLPPDLPRAYRVYTPFSRLYRGAAPPLPPPEALPKGPEEGEIPREDPGLPLPEPGEEAALAGLRAFLEAKLPRYAEERDRLDGEGGSRLSPYFALGVLSPRLAAWEAERRGGEGARKWVAELLWRDFSYHLLYHFPWMAERPLDPRFQAFPWQEDEALFQAWYEGKTGVPLVDAAMRELHATGFLSNRARMNAAQFAVKHLLLPWKRCEEAFRHLLLDGDRAVNLQGWQWAGGLGVDAAPYFRVFNPVLQGERHDPEGRWLKRWAPEYPSYAPKDPVVDLEEARRRYLRLARDLARG,soluble
25,MGPRFQPDDTLYKRRNTLKVEYVPDDIVGRDNEIEEYEAALQPIINGEYPDNIFIYGKTGVGKTAVTNFLLNELRESADHFEVDLTVISLNCDGLSTSYQAAISLVNNLRGHENHIAETGHPQSKVYRLLWNELNKLSGSVIIVLDEIDHITDDTFLYQITRADNNGYIDNIQLGVIGISNDSTFREQLDAKVQSSLCETEISFPPYGTEELQKVLEQRAEIAFHESALEDGVIPLCAALGRQDGGDARRAITLLRKAGDLARTENANSVTTDHVERAQEKLEAQQSMDIMRDLTEHEQLTLYALTTLAAEGETPARSRIVYQRYKELCEFQGREPRTARRMRSFLSDFEILNLTLSEMEHRGQDGGTYRQHELNRDIATVVDALQTIIGEFGAHQSIIEYLPDSGEEFATM,not soluble
26,MGQGQTKSEQKLSEQTLRKFYDAQLENQLIAENLKWAQQRAVDLLKVRDQLQWEVLAAATTTVVLLAAGSIYKRKDVIIPIVPLIMGCGYQYDVAHGDNRQLVRETAVELLKTPEELHMLPAITLRDIDEFRDSHKL,not soluble
